B1: CPEB3 Ribozyme (parent)
chain: GGGGGCCACAGCAGAAGCGUUCACGUCGCGGCCCCUGUCAGAUUCUGGUGAAUCUGCGAAUUCUGCUGU

Variants of: B1
Assay: self-cleavage, relative activity (ratio to wild type); higher = more cleavage; co-transcriptional
Work on U55A U61G yielded a self-cleavage of 0.6. Work on U55A U61A yielded a self-cleavage of 0.635. With C57U U67A the self-cleavage was 0.365. C57U U67G gave a self-cleavage of 0.509. C57U U67C gave a self-cleavage of 0.465. Work on U55A U62G yielded a self-cleavage of 0.531. C54A G56U gave a self-cleavage of 0.471. For C54A G56A, the self-cleavage was 0.695. Work on U55C U67C yielded a self-cleavage of 0.912. G56C U67C showed a self-cleavage of 0.878. With G56C U67G the self-cleavage was 0.758. Variant G56C U67A has a self-cleavage of 0.941. G56U U64C showed a self-cleavage of 0.762. C54U A59G gave a self-cleavage of 1.04. Work on C54U A59U yielded a self-cleavage of 0.883. Work on G56A A60G yielded a self-cleavage of 0.856. Work on G56A A60U yielded a self-cleavage of 0.326. Variant G56A A60C has a self-cleavage of 0.382. Work on C57A G58U yielded a self-cleavage of 0.367. Work on C57A G58A yielded a self-cleavage of 0.313. In the case of G56U G58U, the self-cleavage is reported as 0.978. Work on G56U G58C yielded a self-cleavage of 0.989. For G56U G58A, the self-cleavage was 0.924. In the case of C57U U62A, the self-cleavage is reported as 0.363. For C57U U62C, the self-cleavage was 0.41. For C54U U62A, the self-cleavage was 0.901. C54U U62C showed a self-cleavage of 1.02. C54U U62G showed a self-cleavage of 0.951. For G56U C63A, the self-cleavage was 0.51. Work on G56U C63U yielded a self-cleavage of 0.842. Variant G56U C63G has a self-cleavage of 0.485. Work on C54U A60U yielded a self-cleavage of 0.468. C54U A60C gave a self-cleavage of 0.211. Variant C54U G58A has a self-cleavage of 0.987. In the case of C54U G58C, the self-cleavage is reported as 0.97. In the case of U55A G56C, the self-cleavage is reported as 0.636. In the case of U55A G56A, the self-cleavage is reported as 0.976. For U55A G56U, the self-cleavage was 0.694. In the case of C54G G58U, the self-cleavage is reported as 0.93. Variant C54G G58C has a self-cleavage of 0.829. Work on G56C U62C yielded a self-cleavage of 0.524. Work on G56C U62A yielded a self-cleavage of 0.355. G56C A60U gave a self-cleavage of 0.795. With G56C A60G the self-cleavage was 0.608. G56A U64A gave a self-cleavage of 0.798. With G56C C66U the self-cleavage was 0.748. G56C C66A showed a self-cleavage of 0.39. Variant G56C C66G has a self-cleavage of 0.517. Variant G56C has a self-cleavage of 0.871. G56A showed a self-cleavage of 0.977. Work on G56U yielded a self-cleavage of 0.968. U53G U69C showed a self-cleavage of 1.04. For U53G U69G, the self-cleavage was 1.02. Variant U53G G68A has a self-cleavage of 0.909. Work on U55G A59C yielded a self-cleavage of 0.364. Variant U55G A59G has a self-cleavage of 0.81. In the case of C57G G68C, the self-cleavage is reported as 0.388. Variant C57G G68A has a self-cleavage of 0.374. G56C C57U showed a self-cleavage of 0.483. G56C C57G gave a self-cleavage of 0.343. For G56C C57A, the self-cleavage was 0.3. Variant U53G U62A has a self-cleavage of 0.688. Variant U53G U62C has a self-cleavage of 0.619. With C54G C57A the self-cleavage was 0.348. C54G C57G showed a self-cleavage of 0.274. In the case of U55G U64A, the self-cleavage is reported as 0.371. For U55G U64C, the self-cleavage was 0.411. C57G C66A gave a self-cleavage of 0.308. U55G U62A gave a self-cleavage of 0.427. With U55G U62C the self-cleavage was 0.517. For U55A A59U, the self-cleavage was 0.456. For U55A A59G, the self-cleavage was 0.981. Work on U55A A59C yielded a self-cleavage of 0.394. Variant C54G C63U has a self-cleavage of 0.797. In the case of C54G C63G, the self-cleavage is reported as 0.514. In the case of U55G U67C, the self-cleavage is reported as 0.612. U55G U67A showed a self-cleavage of 0.884. Work on C54A A60U yielded a self-cleavage of 0.308. With C54A A60G the self-cleavage was 0.584. C57G G65C showed a self-cleavage of 0.428. In the case of C57G G65A, the self-cleavage is reported as 0.37. In the case of C57G G65U, the self-cleavage is reported as 0.254. C57U C63G showed a self-cleavage of 0.397. For C57U C63A, the self-cleavage was 0.438. In the case of U53G U61C, the self-cleavage is reported as 0.473. With U53G U61A the self-cleavage was 0.706. Work on U53G U61G yielded a self-cleavage of 0.681. Variant U55C U62G has a self-cleavage of 0.559. C54U U61A showed a self-cleavage of 0.933. With C54U U61G the self-cleavage was 0.779. C54G U67G showed a self-cleavage of 0.925. For C54G U67C, the self-cleavage was 0.819. Work on C57U A60C yielded a self-cleavage of 0.372. For C57U A60G, the self-cleavage was 0.39. With C57U A60U the self-cleavage was 0.298. With C54A G58U the self-cleavage was 0.968. Work on C54A G58C yielded a self-cleavage of 0.857. In the case of G58A A59C, the self-cleavage is reported as 0.558. For G58A A59G, the self-cleavage was 0.949. C57U U64G gave a self-cleavage of 0.365. C57A U62G showed a self-cleavage of 0.409. In the case of C57A U62C, the self-cleavage is reported as 0.339. With G56U U62G the self-cleavage was 0.563. G56U U62A gave a self-cleavage of 0.654. With G56U U62C the self-cleavage was 0.67. With C54U U67C the self-cleavage was 1.01. For C54U U67G, the self-cleavage was 0.987. In the case of C54U U67A, the self-cleavage is reported as 0.993. Work on U55C A59U yielded a self-cleavage of 0.545. Variant C54G A59C has a self-cleavage of 0.478. Work on C54G A59G yielded a self-cleavage of 0.957. For G56A U69G, the self-cleavage was 1.03. Variant G56A U69C has a self-cleavage of 1.04. In the case of G56A C57U, the self-cleavage is reported as 0.308. In the case of G56A C57A, the self-cleavage is reported as 0.413. G56A C57G gave a self-cleavage of 0.306. With C57A U64A the self-cleavage was 0.357. With C57A U64C the self-cleavage was 0.401. Work on U55C U61A yielded a self-cleavage of 0.604. U55C U61C showed a self-cleavage of 0.407. For C57A A60U, the self-cleavage was 0.415. For C57A A60C, the self-cleavage was 0.264. For G56U A59G, the self-cleavage was 0.909. For G56A U67G, the self-cleavage was 0.995. Work on G56A U67A yielded a self-cleavage of 0.927. G56A U67C showed a self-cleavage of 0.913. Work on C54G G68A yielded a self-cleavage of 0.99. Variant C54G G68C has a self-cleavage of 0.947. For U55G G68C, the self-cleavage was 0.972. For U55G G68A, the self-cleavage was 0.951. In the case of C57G G58A, the self-cleavage is reported as 0.377. C57G G58U gave a self-cleavage of 0.463. Work on C57G G58C yielded a self-cleavage of 0.356. With C57A A59G the self-cleavage was 0.426. For C57A A59U, the self-cleavage was 0.46. Variant U55C G56U has a self-cleavage of 0.686. In the case of C57U G65C, the self-cleavage is reported as 0.374. In the case of C57U G65A, the self-cleavage is reported as 0.357. Variant U55C G58A has a self-cleavage of 0.91. U55C G58U gave a self-cleavage of 0.968. In the case of U55C G58C, the self-cleavage is reported as 0.918. In the case of U55C G65C, the self-cleavage is reported as 0.416. For C54G U61C, the self-cleavage was 0.429. For C54G U69A, the self-cleavage was 1.01. Work on C54G U69G yielded a self-cleavage of 1.05. Work on U55C C63U yielded a self-cleavage of 0.85. U55C C63A gave a self-cleavage of 0.464. With U55C C63G the self-cleavage was 0.532. G56C G68A gave a self-cleavage of 0.918. With G56C G68U the self-cleavage was 0.971. C54G C66U gave a self-cleavage of 0.821. With U55G G65C the self-cleavage was 0.417. U55G G65U showed a self-cleavage of 0.307. With U55G G65A the self-cleavage was 0.408. C54A C66U showed a self-cleavage of 0.911. C54A C66A gave a self-cleavage of 0.45. Variant C54U G56C has a self-cleavage of 0.466. C54U G56U showed a self-cleavage of 0.75. C54U G56A showed a self-cleavage of 0.923. C57G U61A showed a self-cleavage of 0.399. C57G U61G showed a self-cleavage of 0.439. For C57G U61C, the self-cleavage was 0.377. C57U C66G gave a self-cleavage of 0.317. Variant C57U C66A has a self-cleavage of 0.316. For U55G C66A, the self-cleavage was 0.437. With U55G C66U the self-cleavage was 0.681. Variant C54G G56C has a self-cleavage of 0.43.
